Here are results for one molecule from patent publication US20250011428A1 (Novartis, published 2025).

Assay [1] concerns the target T1, recombinant human hFcγR1a (human, UniProt P12314 16-288, limits assumed).
T1 construct: recombinant, analyte in SPR; also called FcγRI
Kind of assay: SPR Biacore T200; IgG amine-coupled on CM5, receptor as analyte; response normalized to parental (=100).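 Note: measured at room temperature in pH 7.6 phosphate buffer with Tween 20, double-referenced sensorgrams, maximum response taken as binding capacity at saturation.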
Description: (§1) Kinetics and binding capacity were measured on a BIAcore® T200 instrument (GE Healthcare, Glattbrugg, Switzerland) at room temperature, with proteins diluted in running buffer 10 mM NaP, 150 mM NaCl, 0.05% Tween 20, pH7.6. A CM5 sensor chip (Sensor Chip SA, GE Healthcare Life Sciences) was used to immobilized engineered immunoglobulins by amine coupling. Then, recombinant human hFcγR1a, or recombinant human hFcγR3a (F158V), or recombinant human hFcRn, or hC1q was used as the analyte.
(§2) Binding data were acquired by subsequent injection of analyte dilution series on the reference and measuring flow cells. Zero concentration samples (running buffer only) were included to allow double referencing during data evaluation. For data evaluation, doubled referenced sensorgrams were analyzed and the maximum response reached during the experiment was monitored. Maximum response describes the binding capacity of the surface in terms of the response at saturation. Finally, measured maximum responses were normalized to the one measured using parental immunoglobulin (not engineered).

The target in a further assay is T2, recombinant human hFcRn (human, UniProt P55899 24-297; P61769 21-119).
T2 construct: FcRn is normally a heterodimer with it
T2 sequence (P55899 24-297 limits assumed, chain 1 of 2): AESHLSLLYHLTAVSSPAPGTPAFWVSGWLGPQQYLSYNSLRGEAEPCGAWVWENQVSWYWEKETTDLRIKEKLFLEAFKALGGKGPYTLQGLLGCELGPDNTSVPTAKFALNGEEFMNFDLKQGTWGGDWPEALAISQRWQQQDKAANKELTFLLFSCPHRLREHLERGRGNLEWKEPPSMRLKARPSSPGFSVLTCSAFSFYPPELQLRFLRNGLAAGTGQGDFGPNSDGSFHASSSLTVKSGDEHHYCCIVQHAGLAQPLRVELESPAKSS
T2 sequence (P61769 21-119 limits assumed, chain 2 of 2): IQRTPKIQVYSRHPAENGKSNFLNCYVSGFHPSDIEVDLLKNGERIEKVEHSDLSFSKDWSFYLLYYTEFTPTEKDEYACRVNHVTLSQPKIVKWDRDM
Description: SPR Biacore T200; IgG amine-coupled on CM5, hFcRn as analyte; response normalized to parental (=100).

Assay [2] concerns the target T3, hCD3epsilon-FC antigen (human, UniProt P07766 23-126).
T3 construct: immobilized by amine coupling on CM5; also called human CD3epsilon
Kind of assay: SPR Biacore T200; hCD3epsilon-FC amine-coupled on CM5, IgG as analyte. The arrangement: unit not given here.

Assay [3] has as its target T4, recombinant human hFcγR3a (F158V) (human, UniProt P08637 17-208).
T4 construct: also called FcγRIII
Kind of assay: SPR max response, normalized to parental (=100).
Description: as §1, §2

Assay [4] has as its target T3, hCD3epsilon-FC antigen. Kind of assay: SPR Biacore T200; hCD3epsilon-FC amine-coupled on CM5, IgG as analyte; 1:1 model, apparent KD (bivalent analyte).
Description: A CM5 sensor chip (Sensor Chip SA, GE Healthcare Life Sciences) was used to immobilize hCD3epsilon-FC antigen by amine coupling. Then, engineered anti-CD3 hIgG1 were used as the analyte.
Binding data were acquired by subsequent injection of analyte dilution series on the reference and measuring flow cells. Zero concentration samples (running buffer only) were included to allow double referencing during data evaluation. For data evaluation, doubled referenced sensorgrams were analyzed by applying a 1:1 binding model analysis to generate the equilibrium dissociation constant (KD). Binding constant described Table 7 are considered as apparent KD since immunoglobulins used as analyte are bivalent for the immobilized antigen. In addition, maximum response reached during the experiment was monitored. Maximum response describes the binding capacity of the surface in terms of the response at saturation. Finally, measured maximum responses were normalized to the one measured using parental immunoglobulin (not engineered).

T3 sequence (P07766 23-126 limits assumed): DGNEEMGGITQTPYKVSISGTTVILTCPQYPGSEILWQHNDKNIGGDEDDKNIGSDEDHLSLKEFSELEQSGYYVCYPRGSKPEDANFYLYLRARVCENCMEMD
T4 sequence (P08637 17-208 F176V): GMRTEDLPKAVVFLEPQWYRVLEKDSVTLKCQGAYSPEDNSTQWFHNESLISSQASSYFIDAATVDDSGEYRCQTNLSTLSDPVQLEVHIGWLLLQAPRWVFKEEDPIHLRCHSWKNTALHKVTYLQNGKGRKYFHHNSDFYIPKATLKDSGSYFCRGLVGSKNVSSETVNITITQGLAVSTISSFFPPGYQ
T1 sequence (P12314 16-288 limits assumed): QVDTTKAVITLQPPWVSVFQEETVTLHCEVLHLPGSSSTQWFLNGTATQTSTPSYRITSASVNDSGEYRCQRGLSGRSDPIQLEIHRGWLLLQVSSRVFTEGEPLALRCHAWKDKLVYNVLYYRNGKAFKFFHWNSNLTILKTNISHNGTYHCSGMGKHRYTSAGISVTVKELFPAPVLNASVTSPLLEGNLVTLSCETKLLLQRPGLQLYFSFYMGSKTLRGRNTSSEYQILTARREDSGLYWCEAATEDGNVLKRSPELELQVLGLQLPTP
Description for recombinant human hFcRn: as §1, §2

B1: CD3_2_YTE (antibody, human IgG1, lambda)
heavy: EVQLVESGGGLVQPGGSLKLSCAASGFTFNTYAMNWVRQASGKGLEWVGRIRSKYNNYATYYADSVKDRFTISRDDSKSTLYLQMNSLKTEDTAVYYCVRHGNFGNSYVSWFAYWGQGTLVTVSSASTKGPSVFPLAPSSKSTSGGTAALGCLVKDYFPEPVTVSWNSGALTSGVHTFPAVLQSSGLYSLSSVVTVPSSSLGTQTYICNVNHKPSNTKVDKRVEPKSCDKTHTCPPCPAPELCCHPSVFLFPPKPKDTLYITREPEVTCVVVGLRHEDPEVKFNWYVDGVEVHNAKTKPREEQYCGCYRVVSVLTVLHQDWLNGKEYKCKVSNKALPAPIEKTISKAKGQPREPQVYTLPPSRDELTKNQVSLTCLVKGFYPSDIAVEWESNGQPENNYKTTPPVLDSDGSFFLYSKLTVDKSRWQQGNVFSCSVMHEALHNHYTQKSLSLSPGK
light: QAVVTQEPSLTVSPGGTVTLTCRSSTGAVTTSNYANWVQQKPGQAPRGLIGGTNKRAPWTPARFSGSLLGDKAALTLSGAQPEDEAEYFCALWYSNLWVFGGGTKLTVLGQPKAAPSVTLFPPSSEELQANKATLVCLISDFYPGAVTVAWKADSSPVKAGVETTTPSKQSNNKYAASSYLSLTPEQWKSHRSYSCQVTHEGSTVEKTVAPTECS
notes: hIgG1
On to B1, for which the “Maximum response at 100 nM hFcγR1a (RU)” value in assay [1] amounted to 3 RU. The “Maximum response at 1840 nM hFcRn (RU)” value with recombinant human hFcRn was determined as 340 RU. Also, in the assay with hCD3epsilon-FC antigen [2], the “Maximum response at 125 nM hIgG1” value came out at 371. In assay [3], the binding result is listed as “no binding (tested: 300 nM hFcγR3a F158V)”. Besides, the Kd in the assay with hCD3epsilon-FC antigen [4] worked out at 2.3 nM.
